From article PMC5664961 (2017) come the findings set out here.

Usually Kd stands for the concentration at which binding is half-saturated. Low readings indicate higher affinity, high ones lower affinity.

The test deals with human Cul3 N-terminal domain (NTD, residues M1-L388) with the engineered mutations I342R and L346D (human, UniProt Q13618 1-388, I342R | L346D). As to the kind of experiment: ITC. On the technique in general: In ITC the heat of successive injections is recorded.
human Cul3 N-terminal domain (NTD, residues M1-L388) with the engineered mutations I342R and L346D, sequence (Q13618 1-388 I342R/L346D): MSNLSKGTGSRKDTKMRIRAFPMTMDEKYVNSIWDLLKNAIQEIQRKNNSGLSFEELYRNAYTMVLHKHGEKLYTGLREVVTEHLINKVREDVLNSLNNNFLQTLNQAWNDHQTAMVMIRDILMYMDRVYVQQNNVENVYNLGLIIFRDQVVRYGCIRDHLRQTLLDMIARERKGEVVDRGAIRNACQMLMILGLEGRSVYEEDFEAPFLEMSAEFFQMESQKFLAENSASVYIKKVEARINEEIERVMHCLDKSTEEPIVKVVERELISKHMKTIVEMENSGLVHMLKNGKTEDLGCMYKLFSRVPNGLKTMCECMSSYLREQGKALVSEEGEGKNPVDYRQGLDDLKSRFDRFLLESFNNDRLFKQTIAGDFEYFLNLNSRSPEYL

B1: KCTD17 BTB + CTD multi-domain construct (residues G20-Q220), tag cleaved (domain or fragment)
chain: SMGAGGRAAGGWGKWVRLNVGGTVFLTTRQTLCREQKSFLSRLCQGEELQSDRDETGAYLIDRDPTYFGPILNFLRHGKLVLDKDMAEEGVLEEAEFYNIGPLIRIIKDRMEEKDYTVTQVPPKHVYRVLQCQEEELTQMVSTMSDGWRFEQLVNIGSSYNYGSEDQAEFLCVVSKELHSTPNGLSSESSRKTKSTEEQLEEQ
Turning to B1, the equilibrium dissociation constant (Kd) was found to be 12 nM.
